Patent US20250262271A1 (ARIZONA BOARD OF REGENTS ON BEHALF OF THE UNIVERSITY OF …, published 2025)

Molecular target: T1, Kog1-FLAG (Saccharomyces cerevisiae, UniProt P38873 1-1557)
T1 construct: Bait of the TORC1 immunopurifications; also called TORC1 subunit Kog1/Raptor with FLAG tag; TORC1 (as purified through Kog1-FLAG); not shown: FLAG tag
Experiment: co-immunopurification after DSP crosslinking, Western blot; long term amino acid and glucose starvation

T1 sequence (P38873 whole entry): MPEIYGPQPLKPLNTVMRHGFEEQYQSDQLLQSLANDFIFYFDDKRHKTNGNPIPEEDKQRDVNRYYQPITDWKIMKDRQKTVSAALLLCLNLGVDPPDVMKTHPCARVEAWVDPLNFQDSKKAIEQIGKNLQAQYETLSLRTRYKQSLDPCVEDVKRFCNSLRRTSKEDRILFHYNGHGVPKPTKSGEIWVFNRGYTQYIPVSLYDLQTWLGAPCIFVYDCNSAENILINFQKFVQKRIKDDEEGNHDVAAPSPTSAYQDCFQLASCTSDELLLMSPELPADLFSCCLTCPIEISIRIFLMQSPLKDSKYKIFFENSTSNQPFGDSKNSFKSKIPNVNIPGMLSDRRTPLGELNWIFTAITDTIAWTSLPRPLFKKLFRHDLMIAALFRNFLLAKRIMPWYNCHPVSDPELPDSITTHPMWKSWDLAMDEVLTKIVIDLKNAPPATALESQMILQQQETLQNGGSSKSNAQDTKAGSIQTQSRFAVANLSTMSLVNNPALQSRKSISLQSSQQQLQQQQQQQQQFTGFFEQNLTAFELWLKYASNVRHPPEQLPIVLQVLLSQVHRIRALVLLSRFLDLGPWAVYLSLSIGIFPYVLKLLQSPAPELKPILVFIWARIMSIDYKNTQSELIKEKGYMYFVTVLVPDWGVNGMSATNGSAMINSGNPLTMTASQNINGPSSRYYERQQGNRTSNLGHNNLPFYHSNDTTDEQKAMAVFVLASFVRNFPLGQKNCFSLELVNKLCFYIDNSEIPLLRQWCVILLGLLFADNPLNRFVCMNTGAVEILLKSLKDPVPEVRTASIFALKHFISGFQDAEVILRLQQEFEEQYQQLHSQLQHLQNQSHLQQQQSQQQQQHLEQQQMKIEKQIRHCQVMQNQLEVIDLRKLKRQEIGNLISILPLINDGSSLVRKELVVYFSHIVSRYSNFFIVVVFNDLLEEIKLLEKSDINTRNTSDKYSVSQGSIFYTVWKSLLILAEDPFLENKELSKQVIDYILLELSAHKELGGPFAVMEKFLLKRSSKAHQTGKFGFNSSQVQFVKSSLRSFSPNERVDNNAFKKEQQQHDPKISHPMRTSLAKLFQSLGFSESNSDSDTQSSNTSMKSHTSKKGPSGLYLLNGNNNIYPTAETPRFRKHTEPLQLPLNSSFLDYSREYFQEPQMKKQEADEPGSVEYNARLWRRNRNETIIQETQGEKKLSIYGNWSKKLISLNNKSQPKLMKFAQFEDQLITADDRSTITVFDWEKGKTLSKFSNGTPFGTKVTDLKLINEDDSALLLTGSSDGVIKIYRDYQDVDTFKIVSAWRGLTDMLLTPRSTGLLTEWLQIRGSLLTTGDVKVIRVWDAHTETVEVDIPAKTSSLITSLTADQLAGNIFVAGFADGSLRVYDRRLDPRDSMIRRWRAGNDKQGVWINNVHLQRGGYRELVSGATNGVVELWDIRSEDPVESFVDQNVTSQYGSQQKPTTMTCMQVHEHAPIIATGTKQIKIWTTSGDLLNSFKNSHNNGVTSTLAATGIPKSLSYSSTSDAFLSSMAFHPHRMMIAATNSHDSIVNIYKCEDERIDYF

- co-purified amount relative to log phase growth: 50%
B1: GFP-Ait1 (other)
chain: MVRLNHAASYFMPIFCSTRPHIVILSALFSISLFSLFYASSELLLHQYDDPLMFKPNSQDYFRTFLLGLFSPFLYYFLKTFLFNINQRFLILNLIVDFPINDVFMLLILIGLAYPQVQDHEGGTIKHKECSWHIIPRQAYIFGISWALGEFTICIIGNLFNYQEIADPNINSGFTHQESANTYCNNNDMSHNDDCGCSTEYRPNVVDRSDITLSKCIEVRNDSSSISNNVYSSEYHPIKPLRSSSSTYGSIRQQPHENKKQLHVPDNSQDDTIIMMNPIDNSLKLTTLDTGDLSFPIDEEQPILKKSFGYTWAVPNENTQNTTKSFTPIKRFIAFSTAYQLVTGLLLMILVVGSNIMLTIGESLILSMYFVYVRGHEGLFTPVVNYFGSRTISNFILCVIIPFISLNFLINTSIYLRRELDDWFNNSQGEFEDDDENTISKRVATNQEYQHPLSANYISMDSPDVINSSPGHFGMNSGQLLGNTTLYYGSLNGDDDDMTNDSALLRFCKKLVKNWRALARNDSFVLGVMVSWSLLVFVTGILSTVYI
notes: Expressed in S. cerevisiae (W303) and immunopurified from DSP-crosslinked, digitonin-treated lysate; also called Ait1-GFP; GFP-tagged Ydl180w; not shown: GFP tag
